Assay results reported in patent US20070021593A1.
“And” between values parts separate entries of the source, which are not always exact repeats. Equal values may be shown once. One block for each molecule: values may come before it.

Key:
[1] = target: CXCL8 receptors on bovine peripheral blood neutrophils; test: biotCXCL8 (1000 ng/ml) on medium-treated bovine neutrophils; alkaline phosphatase-streptavidin and ABTS
[2] = target: CXCL8 receptors on bovine peripheral blood neutrophils; test: preliminary radioligand binding on bovine neutrophils
[3] = target: CXCL8 receptors on bovine peripheral blood neutrophils; test: competition with 20 pM 125I-CXCL8 on 10^6 bovine neutrophils, 45 min on ice
[4] = target: CXCL8 receptors on bovine peripheral blood neutrophils; test: biotCXCL8 binding inhibition on bovine neutrophils; 10 ng/ml unlabeled CXCL8 2 h at 4 C, wash, then 1 ug/ml biotCXCL8; ELISA read-out
[5] = target: CXCL8 receptors on bovine peripheral blood neutrophils; test: competition with 20 pM 125I-CXCL8 on bovine neutrophils; reference wildtype CXCL8
[6] = target: CXCL8 receptors on bovine peripheral blood neutrophils; test: biotCXCL8 binding inhibition on bovine neutrophils; 10 ng/ml analogue 2 h at 4 C, wash, then 1 ug/ml biotCXCL8; ELISA read-out
[7] = target: CXCL8 receptors on bovine peripheral blood neutrophils; test: cell-based or functional assay

OD405 [1]: 0.5 to 0.6 OD405
Molecule: biotinylated CXCL8 (from UniProt P79255 23-101) (ligand)

concentration that just saturated the high affinity receptors [2]: 20 pM
Molecule: 125I-CXCL8 (from UniProt P79255 23-101) (ligand)

IC50 [3]: 0.12 nM | percent of biotCXCL8 binding inhibited [4]: 30%
Molecule: CXCL8 (wild type, unlabeled) (from UniProt P79255 23-101) (ligand)

IC50 [3]: 0.004 nM | fold more effective than wildtype CXCL8 in inhibiting 125I-CXCL8 binding [5]: 100 fold | percent of subsequent biotCXCL8 binding blocked [6]: 95% | IC50, inhibition of bovine neutrophil chemotaxis to 1 ug/ml (129 nM) CXCL8 [7]: 0.11 nM | concentration for complete blocking of bovine neutrophil chemotaxis to 1 ug/ml CXCL8 [7]: 10 nM | concentration for complete inhibition of bovine neutrophil chemotaxis to human CXCL5, CXCL1 or CXCL8 [7]: 3 nM and 20 nM | concentration reducing by 50% the bovine neutrophil chemotactic response to 10 ng/ml human CXCL8 [7]: 0.04 nM | concentration reducing to 50% the bovine neutrophil chemotactic response to 1 ng/ml human CXCL1 [7]: 0.26 nM | concentration reducing to 50% the bovine neutrophil chemotactic response to 1 ng/ml human CXCL5 [7]: 0.06 nM | reduction of the chemotactic response of bovine neutrophils to 1 ug/ml (129 nM) CXCL8 by 12.9 pM analogue [7]: 33%
B1: bovine CXCL8(3-74)K11R/G31P (ligand)
chain: TELRCQCIRTHSTPFHPKFIKELRVIESPPHCENSEIIVKLTNGNEVCLNPKEKWVQKVVQVFVKRAEKQDP

percent of CXCL8 binding blocked [6]: 48%
B2: bovine CXCL8(3-74)K11R/P32G (ligand)
chain: TELRCQCIRTHSTPFHPKFIKELRVIESGGHCENSEIIVKLTNGNEVCLNPKEKWVQKVVQVFVKRAEKQDP
